According to patent US20250215403A1, “Compositions and Methods for Cardiac Tissue Regeneration” (Temple University - Of The Commonwealth System Of Higher …, priority 2022, published 2025):

Tests used:
[1] = Long-term survival of mice post-MI; format: in vivo, mouse; conditions: Luc vs PSAT1 modRNA
Description: All animal procedures were performed under protocols approved by the Temple University Animal Care and Use Committee. Male and female C57BL6 mice were used. Different modRNAs (100 μg/heart) were injected directly into the myocardium in open chest surgery. Three to ten animals used for each experiment. For mice survival, C57BL6 mice (10-12-weeks-old) treated with Luc or PSAT1 modRNAs (n=10) post induction of MI and were followed for the indicated time. Deaths were monitored and documented over time. Tamoxifen-inducible CM-restricted MADM mice (α-MHC-MADM mice) mice were generated by crossing MADM mice (Jackson laboratory) to […].^Tg(Myh6-cre/Esr1*) 1Jmk/J (Cat no. 005657) mice to get α-MHC-MADM mice (Yuko, A. E., et al., 2021, Redox Biology, 47:102162). Tamoxifen (Sigma-Aldrich) was dissolved in sesame oil at 10 mg/ml as stock solution. To induce Cre activation, tamoxifen was administered to mice by intraperitoneal (IP) injection five times (48 h interval between administrations) at 40 mg/kg body weight for adult mice (Yuko, A. E., et al., 2021, Redox Biology, 47:102162). The tissues were harvested at mentioned time for analysis.

PSAT1 = PSAT1 protein expression in mouse myocardium post-MI after modRNA delivery; format: in vivo; conditions: 100 μg modRNA into myocardium post-MI; within 24 hours
Description: In vivo transfection of modRNA was done as described previously in a recent method paper (Magadum A., et al., Circulation. 2020, 141 (15): 1249-1265; Sultana N., et al., Mol Ther, 2017, 25 (6): 1306-1315) using sucrose citrate buffer containing 10 μl of sucrose in nuclease-free water (0.3 g/ml), 10 μl of citrate (0.1M pH-7; Sigma) mixed with 10 μl of different concentrations of modRNA in saline to a total volume of 30 μl. Immediately after LAD ligation, mice received an intra-myocardial injection of modRNA (100 μg) in total volume of 30 μL at 3 different sites (mid-anterior×2 places and apical anterior) in the peri-infarct area (Magadum A., et al., Circulation. 2020, 141 (15): 1249-1265; Magadum, A., et al., 2021, Advanced Science, 9:2004661). For in vitro transfection, RNAiMAX transfection reagent (Life Technologies) was used according to manufacturer's recommendation (Magadum A., et al., Circulation. 2020, 141 (15): 1249-1265; Sultana N., et al., Mol Ther, 2017, 25 (6): 1306-1315).
All surgical and experimental procedures with mice were performed in accordance with protocols approved by Institutional Animal Care and Use Committees at Temple University Animal Care and Use Committee (IACUC). C57BL6 or CM-specific MADM mice (8-12-weeks-old) were anesthetized with isoflurane. […] This ratio was calculated as the heart tissue weight relative to the mouse total body weight in grams (g). […]

B1: PSAT1 modRNA: modified mRNA with N1-methylpseudouridine, transcribed in vitro, encoding phosphoserine aminotransferase 1 (ORF SEQ ID NO: 1, RNA SEQ ID NO: 2) (nucleic acid)
chain: AUGGAAGCCACCAAGCAAGUGGUUAACUUUGGGCCCGGGCCUGCCAAGCUGCCACACUCGGUAUUGUUGGAGAUCCAGAAGCAGCUACUAGACUACAGAGGACUCGGCAUCAGUGUGCUCGAAAUGAGUCACAGGUCAUCAGAUUUUGCCAAGAUUAUUGGCAAUACAGAGAAUCUUGUGAGGGAAUUGCUAGCUGUUCCCAACAACUACAAGGUGAUCUUUGUACAAGGAGGUGGGUCUGGCCAGUUCAGUGCUGUCCCCUUAAAUCUGAUUGGCCUGAAAGCUGGAAGGAGUGCUGACUACGUGGUGACCGGAGCUUGGUCAGCUAAGGCUGCGGAAGAAGCCAAGAAGUUUGGAACGGUGAACAUUGUCCACCCUAAACUUGGAAGUUACACAAAAAUUCCAGACCCAAGCACCUGGAACCUCAACCCGGACGCCUCCUAUGUAUACUUCUGUGCAAACGAGACUGUGCACGGGGUGGAGUUUGACUUCGUACCUGACGUCAAGGGAGCGGUGCUGGUCUGUGACAUGUCCUCAAACUUCUUAUCCAGGCCGGUGGAUGUUUCCAAGUUUGGUGUGAUUUUCGCUGGUGCUCAGAAGAAUGUUGGCUCUGCCGGGGUGACGGUGGUGAUUGUCCGGGAUGACCUGCUGGGGUUCUCGCUCAGAGAGUGCCCAUCAGUCCUUGACUACAAAGUGCAGGCUGGGAACAACUCUUUGUAUAACACACCUCCGUGCUUCAGCAUCUACGUCAUGGGCAUGGUCCUGGAAUGGAUCAAGAACAACGGCGGGGCCGCAGCCAUGGAGAAGCUCAGCUCCAUCAAAUCCCAAAUGAUUUAUGAGAUCAUUGAUAAUUCUCAAGGAUUUUAUGUAUGCCCAGUGGAGCGCCAGAAUAGAAGCAGGAUGAACAUCCCAUUUCGCAUUGGCAACGCCAAAGGAGACGAAGCUUUGGAAAAGCGGUUUCUUGACAAGGCGGUAGAACUCAACAUGAUCUCCUUGAAGGGGCACAGGUCAGUGGGAGGCAUUCGUGCCUCUCUGUAUAACGCUGUCACAACCGAAGACGUUGAGAAGCUGGCGGCCUUCAUGAAGAAUUUCUUGGAGAUGCAUCAGCUGUGA
modifications: N1-methylpseudouridine
mice survival [1]: significantly improved
PSAT1 protein expression in mouse myocardium (PSAT1): robust
